# Experimental data published in the supplement of paper PMC12042874.
# ± gives the uncertainty stated by the source.
# Assay: amyloid nucleation score (Sup35N fusion, yeast selection) (log enrichment); library NNK2; higher = more nucleation; inactive = no reads after selection
# Method in brief: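 Output and input plasmid inserts were sequenced by Illumina after psi-negative yeast carrying Sup35N fused to peptides of 20 random codons had been induced 24 hours with 100 μM copper sulfate and grown 7 days at 30°C on medium lacking adenine and uracil. The nucleation score is the DiMSum log enrichment of output over input reads, centred on the mode score of non-aggregating sequences. Sequences with under 100 input reads were excluded.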
row,Substance,amyloid nucleation score
1,RTVLGGWMANWASHNILVQC,0.316 ± 0.39
2,VSNYMIVKIQWFHIVVGPGL,5.598 ± 0.031
3,GGYSLWF,0.292 ± 0.23
4,DIAKLLCYILCFNGKSRRWG,0.127 ± 0.55
5,EGLRVEMCYGKNVSFMIGSY,5.727 ± 0.049
6,TVALNSWARHGEML,-0.375 ± 1.1
7,DDNVLYCYSYVVHESLSAAQ,0.354 ± 0.3
8,RSPRHQNQDPRLKGRNARSP,2.49 ± 0.086
9,SKGIDSEIHKRHRVRD,-0.206 ± 0.54
10,LVVWPMNQPLPLSNRPTPKR,1.83 ± 0.3
11,ESRGSCSIKNYRLVWDC,-0.451 ± 0.74
12,YTSGSTGRDLLPNMKRGSVV,4.36 ± 0.12
13,VVWSN,0.845 ± 0.29
14,CCSFNLISLYSKVRARSELP,8.765 ± 0.029
15,YRTCNIDGL,inactive
16,AWDRDVNDENLVSIYMCRKL,-0.233 ± 0.32
17,CSPVLKSSFNALARKRMLAR,1.29 ± 0.35
18,YVWIQTLYALWYFSLRFAGL,-0.413 ± 0.49
19,ILKGNNSS,-1.2 ± 0.62
20,WSNFVIMNVPANGAWNFRIR,-1.13 ± 0.76
21,SFNVSTMRLQIVSVLRKSRR,0.236 ± 1.1
22,MVFAPIVYEIKRDIKMLFGA,5.947 ± 0.029
23,TWRHSPCLVRTEFERKLTRL,0.039 ± 0.49
24,LKMGVGCRGRLLWCSLTCMR,1.46 ± 0.31
25,NWWYSRSRPHMGSSISFSEV,-0.37 ± 0.41

row,Substance,amyloid nucleation score
1,LVAALRV,-0.452 ± 0.39
2,MHSLISELLLPNTIFGSAGI,-0.707 ± 0.76
3,GEQMWGYCRLYRGTGRGALG,1.85 ± 0.16
4,LIICSAPCCVTTWQQLRTMQ,4.15 ± 0.047
5,FNVSVGMMNFRMERLGI,-0.819 ± 0.42
6,IQLDTESSLVKRRAWYG,0.34 ± 0.64
7,RLNVKDYFCYIAQESKTTDR,4.76 ± 0.083
8,FCYAYTFMHEYLRGC,0.737 ± 0.3
9,ELSHSLSIKATVEGS,0.279 ± 0.56
10,LVFRGAVCDITRAG,-0.682 ± 0.76
11,AVFNGFKNNSLV,-0.146 ± 1
12,HIFHCLSMGILGCSMFLCLD,0.952 ± 0.24
13,MDFSSLWGLHFVLCCVSWGR,0.256 ± 1
14,HTGLFWS,inactive
15,ESNMSKLAFRRDTVF,inactive
16,WTMMYCTNACYDRYICNYRA,-0.038 ± 1.1
17,LTEDTMFG,-0.573 ± 0.76
18,VMFVTSV,0.201 ± 0.29
19,VFCINAFRALQTYCCWMYF,1.91 ± 0.087
20,KYVFGKTYPRY,inactive
21,IPYYIDKKQSKMCNGFWS,0.572 ± 0.57
22,CVVDLDPCNGDAGLSSYTIS,0.594 ± 0.13
23,CFGRMVTSNSSDLRYSNDRL,1.56 ± 0.097
24,HDGCGPCSHWTGSQFTFRSS,2.2 ± 0.11
25,KFSKIRFAFIIFGSKPYMRV,-0.875 ± 0.49

row,Substance,amyloid nucleation score
1,NYVVE,4.73 ± 0.069
2,PDFRSP,-0.451 ± 0.41
3,YCLSIWIDLSFIFVIRVDSG,inactive
4,LVKCSVSVRGEILRFLRYMA,0.26 ± 0.22
5,IQVMSDMFKCDVTNVMGRRG,2.99 ± 0.094
6,ESIRAGLRRSRLWNRGFGES,0.738 ± 0.27
7,FIFLNNIHTYIYYVR,6.292 ± 0.034
8,QTRTQEFFRSFNKVFTQ,2.59 ± 0.061
9,NNNFMRTR,2.44 ± 0.066
10,VSYVYVKGFGVWFLCTCSPR,5.74 ± 0.072
11,SSYKTLPAMLVARMLINYTV,-1.02 ± 0.45
12,FVWSKSR,2.88 ± 0.13
13,DRFVLIVHINRGRV,3.86 ± 0.048
14,IFGFGL,2.85 ± 0.2
15,NGFNYFKMW,-1.65 ± 1.1
16,KWFSIMRPVRLVRFHWTGSN,3.63 ± 0.089
17,RTVIQQVPAPLARAGVRWGW,3.17 ± 0.097
18,FFCMA,5.48 ± 0.056
19,SMLSSMYFKFPL,2.07 ± 0.16
20,RAMVPHHNADGCGLLQDTQ,1.14 ± 0.38
21,WTCVGSYWSLHFAFSR,4.25 ± 0.12
22,GSLGASVSNFGVAYSLCATR,-0.359 ± 0.65
23,KMKFKKENFC,-0.858 ± 1
24,CSGSLHERQYVRYDEVRRVG,-0.031 ± 0.55
25,HFIGVD,-0.156 ± 0.28

row,Substance,amyloid nucleation score
1,LCYMGRVA,0.224 ± 0.34
2,YSKDSMDSYMMIMFGSVACH,0.681 ± 0.6
3,EARVSRLFT,0.542 ± 0.18
4,NIFMWSSTEIHCRWKVFLRL,-0.949 ± 0.44
5,NCGLWNISMCPGDNLSSWDG,7.46 ± 0.039
6,LMALTPIVVVYIMGSMDLST,-0.436 ± 1.1
7,PWSSHCSCVFNNKDLILGNT,-0.21 ± 0.79
8,HHSELFIIITYFG,0.206 ± 0.5
9,YITYSREAETCIFVKGDFS,-0.153 ± 1.1
10,RVSYDF,0.43 ± 0.65
11,SMRYDRDNHKHPFNIEAMRY,-0.096 ± 0.46
12,LSSVILVLNNSVAFYILDAG,3.83 ± 0.09
13,IMMWFYPARTRQELASYEDQ,2.12 ± 0.089
14,RARLKTMRPGSCSRARGWCG,0.883 ± 0.33
15,SRIIYMPPPVCHESLGKRPV,-0.296 ± 0.63
16,ALSDCL,-0.427 ± 0.45
17,YAQQIVVLVAGPWWSWTRRG,0.791 ± 0.81
18,ILLTFVPAEKSWTSAIL,0.058 ± 0.55
19,QWSVINRTS,1.54 ± 0.31
20,LYPWRMTCYK,-1.34 ± 0.76
21,INTSELNVFRS,inactive
22,IKVAEGSLVCARYGRMVRLE,4.92 ± 0.053
23,TNHYSSVRS,-0.195 ± 0.54
24,PEMWHYMRFSSIKIRLTSKF,-0.016 ± 0.65
25,HSLMQLYLVIFLAHFQSYGL,0.604 ± 0.44

row,Substance,amyloid nucleation score
1,NRQLWYPSINKYFFKSADPL,inactive
2,AAFLAVSGFCNLPGGSTHIL,2.38 ± 0.079
3,YSGLKCALCRCC,1.94 ± 0.3
4,NAQSRVLAEETGLSNPPIML,-1.45 ± 0.62
5,AMLDP,-0.191 ± 0.41
6,KILNPERRSNGWVMMKFVVD,-0.599 ± 1
7,CYHFCYYVLSLVWGQNPVIK,0.108 ± 0.65
8,MQRTIYFS,0.767 ± 0.58
9,NDMFLSYLHSPWYNVLCDFI,-1.29 ± 0.49
10,LVQMLVSV,-0.342 ± 1
11,TTDSGAVYSGLPE,0.542 ± 0.19
12,AFQITSERLGWKKVNHAVRW,0.432 ± 0.8
13,FKLGGSNVDDFFVFNWITVF,-0.596 ± 0.76
14,LVSFRKPILTSQ,0.164 ± 0.8
15,LVYVWKDLAYMVLLHFRLFL,-1.16 ± 1.1
16,SIHDQLGHYVFIV,-1.16 ± 0.62
17,TMMSLSGIVL,-0.376 ± 0.48
18,SPSTAMFGPMYSVCIHCEYL,7.395 ± 0.051
19,VSAGVTREGLEVGTVFGP,0.379 ± 0.44
20,NFVYMFVKL,4.97 ± 0.062
21,LKCHVLGVHCAL,0.205 ± 0.19
22,QFARGPSGSIMEQVLIDGDV,0.277 ± 0.64
23,CTRVLW,-0.201 ± 0.32
24,RFIMSRYALEGAESTLMKHN,3.53 ± 0.1
25,ASVENGSALIIRESDMSGGN,0.556 ± 0.43

row,Substance,amyloid nucleation score
1,CQWSVGRLRSLRAESVVQFD,0.104 ± 0.35
2,SYPACRNRAVVRARGVVNLW,2.7 ± 0.18
3,FFMYHAVL,1.02 ± 0.34
4,SDYVYKFSVAWWVPVSSVVK,0.701 ± 0.38
5,MRHMYRPPIVSLHRVAIGFM,-0.906 ± 0.63
6,FSFEMDISLWALWGYMRSDL,inactive
7,GPIWCRS,-0.467 ± 0.74
8,TCIYSYRRNSCRIGCLRSWR,0.425 ± 0.6
9,IFFLSNLKRKPDDRGLVHKN,2.57 ± 0.14
10,CRCLPKKGFHVLTVSRFRAS,inactive
11,FKTVCVGKCLVFMVTDAELI,-1.49 ± 0.76
12,GGMLPYVVITFETFMPRCMN,-1.7 ± 0.75
13,LKSDRSLMLIEPALDLIWYF,-0.27 ± 1.1
14,VYIIVFRIWLPLHFWSSTLM,-0.354 ± 0.56
15,NCVNPDYGLLQQLSRYLVVC,-0.764 ± 0.64
16,MPQWKL,-0.205 ± 0.74
17,VDAVLND,0.432 ± 0.29
18,NLSWLVNWMEYVRGRLW,-0.56 ± 0.4
19,MIMEQSNNISNCLFVMQGPK,7.143 ± 0.07
20,TGCMSFSWPWTLLVSPIQLS,-0.651 ± 0.48
21,GNGRHC,-0.021 ± 0.21
22,FDLCTLFYNSRFHIIRYWVT,inactive
23,DSFVIAVLQIIPYTLTQHSK,1.7 ± 0.085
24,SWCCTSIYHVRLW,9.427 ± 0.058
25,FVSGRKNETYSKVIHVSDVD,-0.198 ± 0.62

row,Substance,amyloid nucleation score
1,DDFGCLYFYILYS,inactive
2,ICGCCARIHNYNISVSACLT,4.3 ± 0.052
3,IPALN,-0.963 ± 0.55
4,NLYMPDS,0.395 ± 0.8
5,CLLWVAQYVQAMEGVALSVG,1.5 ± 0.21
6,CKEDIISSEWYLSVGFA,inactive
7,SDTSVRGLLLEVCRWSGWVA,1.33 ± 0.35
8,NWVWLKWRITQYFIHSASSS,1.43 ± 0.19
9,SSYLGMENQRLMRKESGCCL,0.09 ± 0.41
10,TSISLLFWCVYSLASVGFSA,-0.586 ± 1.1
11,CVKQWRTIIVTLYLGTLPK,4.21 ± 0.059
12,ALSFYNY,-0.282 ± 0.76
13,CCVMVELLVYFPM,1.88 ± 0.098
14,HVVVDSSVVAGCFTVFCRGI,8.265 ± 0.046
15,CCVEPVVRDVEVKIRSVVMN,0.123 ± 0.56
16,CISTYN,-0.822 ± 0.44
17,QVGRSSQCEDTVVFIRVRLW,3.77 ± 0.066
18,DAKPVCIDGLFI,-0.839 ± 0.56
19,GVGHFFLIQINKMCPHMRMA,2.98 ± 0.13
20,NGVKEYLGNTSWKCTNRA,-0.137 ± 0.5
21,AHHYSESRGFRCCLTSGYFC,0.818 ± 0.25
22,RIHFGFRMMMCRDIRIFTSQ,6.06 ± 0.064
23,LCNNKAYNDKLSPEPLAISR,-0.578 ± 0.39
24,LMCTSAKSADMSH,0.992 ± 0.6
